# Measurements as given in patent US20110195896A1 (CASE WESTERN RESERVE UNIVERSITY, published 2011).
# Ends that are not written are not given here.
# Experiments:
# Type I IGF receptor [1] = target: T1, Type I IGF receptor (UniProt P08069 31-1367); experiment: competitive displacement of 125I-IGF-1 from IGFR
# T1 construct: also called IGF-I RECEPTOR; Insulin-like Growth Factor Receptor
# Type I IGF receptor [2] = target: T1, Type I IGF receptor; experiment: competitive displacement of labelled tracer from IGFR
# Protocol: Receptor-Binding Assays. […] This assay employs the purified epitope-tagged receptor (IR-A, IR-B, or IGFR) using a microtiter-plate antibody-capture assay as known in the art. The epitope tag consists of three tandem repeats of the FLAG epitope. Microtiter strip plates (Nunc Maxisorb) were incubated overnight at 4° C. with anti-FLAG IgG (100 μl/well of […] in phosphate-buffered saline). Binding data were analyzed by a single-site heterologous competition binding model. A corresponding microtiter plate antibody assay using the epitope-tagged IGF Type I receptor was employed to assess cross-binding of analogues to this homologous receptor.
Kd (Type I IGF receptor [1]) [nM],Kd (Type I IGF receptor [2]) [nM],Binder
27.6,27.6,"[His^A8, Asp^B28, Pro^B29]-SCI (57-mer single-chain insulin analogue, linker GGGPRR) (ligand, ends and bridges not checked; cysteine pairing not given here, Made by total chemical synthesis and native ligation) FVNQHLCGSHLVEALYLVCGERGFFYTDPTGGGPRRGIVEQCCHSICSLYQLENYCN"
–,9.89,"His^A8, Asp^B10, Asp^B28, Pro^B29 SCI (ligand, also called SCI (His^A8, Asp^B10, Asp^B28, and Pro^B29); SCI containing the substitution Asp^B10) FVNQHLCGSDLVEALYLVCGERGFFYTDPTGGGPRRGIVEQCCHSICSLYQLENYCN"
